Among the data in the supplement of paper PMC9732359 are protein stability index values, retold here.

± gives the uncertainty stated by the source.

The nature of the data set: protein stability index of a GFP-peptide fusion (yeast GPS) (PSI 1-4); higher = more stable; sorted into four equal gates, so the index is relative within each strain. Put shortly: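 Mid-log yeast cultures in leucine-free medium, carrying a pooled plasmid library, were sorted into four equal gates by their GFP/Cherry fluorescence ratio. Each plasmid expressed Cherry along with GFP fused upstream of a tiled 17-residue yeast protein peptide. Plasmids recovered from each gate were PCR-amplified and Illumina-sequenced, with reads assigned to strains by barcodes. The protein stability index was obtained by summing each gate's read frequency weighted by its gate number.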

As to DNVSKNALDKLRNNLNS [YCG1], the protein stability index amounted to 3.23 ± 0.12 (doa10∆), 3.19 ± 0.13 (pdr5∆), 2.24 ± 0.29 (san1∆) and 3.01 ± 0.17 (ubr1∆).
With EHIIRDVHNGYILRYLH [COB], the protein stability index is, setting by setting: (doa10∆) 2.35 ± 0.23; (pdr5∆) 1.7 ± 0.13; (san1∆) 1.39 ± 0.16; (ubr1∆) 2 ± 0.11.
Take VIFKIRDRTSGQKLLAI [SRB4]: the protein stability index by setting is: (pdr5∆) 3.17 ± 0.2; (san1∆) 3.5 ± 0.11; (ubr1∆) 3.33 ± 0.16.
The sequence NNIDQSLILKESGSTPI [YAR002W/NUP60] returned a protein stability index (doa10∆) of 1.85 ± 0.085, a protein stability index (pdr5∆) of 1.78 ± 0.1 and a protein stability index (ubr1∆) of 1.61 ± 0.064.
As to DENDSKKNNAASELANP [YAR002W/NUP60], the protein stability index runs as follows: (doa10∆) 2.97 ± 0.078; (pdr5∆) 2.99 ± 0.052; (san1∆) 3.05 ± 0.047; (ubr1∆) 2.97 ± 0.047.
On to LNCGNGMGIGFIDHHAA [POP1], for which the protein stability index reads like this: (doa10∆) 3.33 ± 0.086; (pdr5∆) 3.13 ± 0.07; (san1∆) 3.33 ± 0.07; (ubr1∆) 3.42 ± 0.046.
The like results for PGDIVRAQVLSLGDGTN [CSL4] were, in that order, 3.62 ± 0.24, 3.26 ± 0.12, 3.14 ± 0.12 and 3.29 ± 0.12.
The like results for PSNFEINAEEIVDFTLP [PRP8] were, in that order, 2.91 ± 0.083, 3.18 ± 0.082, 3 ± 0.064 and 3.02 ± 0.049.
For PHDLIIGTADIFIRQLK [BRR2], in that order: 2.11 ± 0.057, 2.51 ± 0.069, 2.27 ± 0.073 and 2.49 ± 0.052.
For LDENKWYKFNDDKVSVV [UBP6], the protein stability index is 2.87 ± 0.12 (doa10∆), 3.06 ± 0.091 (pdr5∆), 3.06 ± 0.1 (san1∆) and 2.97 ± 0.081 (ubr1∆).
The like results for NFIIWINSIDTTESSDL [GRR1] were, in that order, 2.46 ± 0.044, 2.38 ± 0.047, 2.61 ± 0.055 and 2.88 ± 0.037.
For the setting “doa10∆”, KTDQEEEREGTDQSTEE [CSL4] came in with a protein stability index of 3.12 ± 0.16.
As for IQIFRAHLWQKIHESIV [PRP8], the protein stability index reads like this: (doa10∆) 2.4 ± 0.098; (pdr5∆) 2.52 ± 0.09; (san1∆) 2.59 ± 0.073; (ubr1∆) 2.47 ± 0.074.
For VKADVEKSLLPKIETNV [ISW2], in that order: 3.03 ± 0.086, 3.18 ± 0.074, 3.11 ± 0.062 and 2.92 ± 0.088.
For MPNDNKTPNRSSTPKFT [SIR4], in that order: 2.66 ± 0.1, 2.55 ± 0.19, 3 ± 0.062 and 3.09 ± 0.086.
The like results for FGWLLSDNSVSVRLQVT [IRR1] were, in that order, 1.26 ± 0.078, 1.32 ± 0.095, 1.19 ± 0.23 and 1.13 ± 0.13.
With LGWDLDAIIPFAAIPEQ [FAS2], the protein stability index is, setting by setting: (doa10∆) 2.6 ± 0.28; (pdr5∆) 3.14 ± 0.15; (ubr1∆) 3.15 ± 0.16.
Sequence VSHHATTFTHCEIHPSM [RPB2] showed a protein stability index (doa10∆) of 3.12 ± 0.076, a protein stability index (pdr5∆) of 3.22 ± 0.069, a protein stability index (san1∆) of 2.46 ± 0.12 and a protein stability index (ubr1∆) of 2.96 ± 0.062.
The like results for KFKRHHSDRYHRVAENW [RPL32] were, in that order, 3 ± 0.072, 3.21 ± 0.065, 3.2 ± 0.05 and 3.07 ± 0.045.
Sequence TPAAATSPIDIREKVAK [SNF2] registered a protein stability index (doa10∆) of 2.75 ± 0.11, a protein stability index (pdr5∆) of 2.84 ± 0.11, a protein stability index (san1∆) of 2.63 ± 0.11 and a protein stability index (ubr1∆) of 3.01 ± 0.1.
For IGLRQFQQIQYENKQLY [POP1], in that order: 2.84 ± 0.085, 2.81 ± 0.061, 2.92 ± 0.048 and 2.79 ± 0.047.
Turning to ELAESTTTKIIDSTDHI [LRP1], the protein stability index runs as follows: (doa10∆) 2.95 ± 0.1; (pdr5∆) 3.11 ± 0.1; (san1∆) 2.86 ± 0.24; (ubr1∆) 2.63 ± 0.12.
For ELRRFESSINTHPHAAD [SKI6], in that order: 2.73 ± 0.081, 3.08 ± 0.054, 2.56 ± 0.064 and 2.87 ± 0.055.
For FNRLKKQAHEKLDASKK [YIL149C/MLP2], in that order: 2.95 ± 0.086, 3.08 ± 0.099, 3.41 ± 0.069 and 3.14 ± 0.082.
Turning to NFLDNCLFENDLQRLKP [ITC1], the protein stability index runs as follows: (doa10∆) 2.61 ± 0.051; (pdr5∆) 3.07 ± 0.063; (san1∆) 2.94 ± 0.048; (ubr1∆) 3.06 ± 0.034.
For TNKISPKDFSPNFTGID [SSN2], in that order: 2.76 ± 0.13, 1.84 ± 0.11, 2.9 ± 0.12 and 2.91 ± 0.057.
For DMAKLKKMMNTSDSEST [SWI3], in that order: 1.81 ± 0.059, 2.27 ± 0.05, 1.94 ± 0.073 and 1.91 ± 0.036.
